B1: NF2 (N protein fragment, residues 211-422) (domain or fragment)
chain: MASGGGETALALLLLDRLNQLESKVSGKGQQQQGQTVTKKSAAEASKKPRQKRTATKQYNVTQAFGRRGPEQTQGNFGDQDLIRQGTDYKHWPQIAQFAPSASAFFGMSRIGMEVTPSGTWLTYHGAIKLDDKDPQFKDNVILLNKHIDAYKTFPPTEPKKDKKKKTDEAQPLPQRQKKQPTVTLLPAADMDDFSRQLQNSMSGASADSTQA
B2: NF4 (N protein fragment, residues 285-422) (domain or fragment)
chain: GNFGDQDLIRQGTDYKHWPQIAQFAPSASAFFGMSRIGMEVTPSGTWLTYHGAIKLDDKDPQFKDNVILLNKHIDAYKTFPPTEPKKDKKKKTDEAQPLPQRQKKQPTVTLLPAADMDDFSRQLQNSMSGASADSTQA

Biological target: the molecule itself
Experiment: AUC

Protein | stoichiometry N
B1 | 2
B2 | 2
